Laboratory results: US9109032

Target: EphA3 antigen (UniProt P29320)
Assay: ELISA

Chain of UniProt P29320 (P29320 21-541 limits assumed): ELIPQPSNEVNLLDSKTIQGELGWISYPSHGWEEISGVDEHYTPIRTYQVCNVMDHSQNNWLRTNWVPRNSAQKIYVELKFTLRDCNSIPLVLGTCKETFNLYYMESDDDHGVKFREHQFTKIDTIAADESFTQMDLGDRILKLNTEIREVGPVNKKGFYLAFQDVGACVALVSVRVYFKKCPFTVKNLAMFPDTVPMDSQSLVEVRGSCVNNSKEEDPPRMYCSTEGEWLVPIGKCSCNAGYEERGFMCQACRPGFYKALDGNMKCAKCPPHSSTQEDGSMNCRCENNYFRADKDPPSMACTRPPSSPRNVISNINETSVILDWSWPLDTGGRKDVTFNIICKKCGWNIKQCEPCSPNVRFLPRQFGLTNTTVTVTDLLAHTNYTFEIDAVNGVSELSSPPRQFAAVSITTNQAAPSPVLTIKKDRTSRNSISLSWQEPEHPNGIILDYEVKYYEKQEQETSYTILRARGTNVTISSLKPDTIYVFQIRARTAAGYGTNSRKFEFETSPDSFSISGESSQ

AFFINITY: 2.5 nM
Substance: monoclonal antibody IIIA4
